Results on two substances are retold here after US20090155236A1, “Peptide sequence for modulation of delta protein kinase c” (NATIONAL INSTITUES OF HEALTH (NIH), U.S. DEPT OF HEALTH AND …, priority 2004, published 2009).

The target in experiment [1] is recombinant full-length delta PKC (rat). Briefly: ELISA, absence of calcium.
Experiment [2] has the same target. Briefly: ELISA, presence of calcium.
The target in experiment [3] is annexin V protein (human) (UniProt P08758). Briefly: ELISA, annexin V immobilised, presence of calcium.
annexin V protein (human), sequence (P08758 2-320 limits assumed): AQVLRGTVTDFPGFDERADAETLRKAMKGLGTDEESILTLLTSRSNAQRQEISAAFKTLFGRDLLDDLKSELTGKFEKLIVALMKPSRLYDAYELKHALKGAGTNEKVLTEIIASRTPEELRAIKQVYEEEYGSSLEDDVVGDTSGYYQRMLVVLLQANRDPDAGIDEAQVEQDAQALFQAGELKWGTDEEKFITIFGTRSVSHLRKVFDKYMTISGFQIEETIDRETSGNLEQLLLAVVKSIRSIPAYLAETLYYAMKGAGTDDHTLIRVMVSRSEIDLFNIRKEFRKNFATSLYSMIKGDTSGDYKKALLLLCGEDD
For experiment [4] the target is unchanged. Nature of the experiment: ELISA, annexin V immobilised, absence of calcium.

With “annexin V protein (from UniProt P08758 2-320)”, the percent binding amounted to 75% in experiment [1] and 100% in experiment [2].
Regarding “delta V1 PKC (from UniProt P09215 1-160)”, the percent binding came to 100% in experiment [3] and 55% in experiment [4].
